Results published in PMC6238593, “Beetle luciferases with naturally red- and blue-shifted emission” (Life Science Alliance, 2018).
Residue numbers refer to the chain shown, from its start. Values belong to the compound of their own block, whether it stands above or below them.

What was measured:
[1] = target: T1, GBAv (blue-shifted green-emitting luciferase from A. vivianii) (Amydetes, UniProt A0A3F2YLV6); experiment: bioluminescence emission spectra; type: biochemical; settings: pH 7.0 to 8.0
T1 construct: full-length synthetic codon-optimised gene in pET28a+, E. coli BL21-CodonPlus-RIL, Ni and size-exclusion purified; monomer; PDB codes 6AAA, 6ABH, 6AC3 printed without assignment to protein
T1 sequence (A0A3F2YLV6 1-547): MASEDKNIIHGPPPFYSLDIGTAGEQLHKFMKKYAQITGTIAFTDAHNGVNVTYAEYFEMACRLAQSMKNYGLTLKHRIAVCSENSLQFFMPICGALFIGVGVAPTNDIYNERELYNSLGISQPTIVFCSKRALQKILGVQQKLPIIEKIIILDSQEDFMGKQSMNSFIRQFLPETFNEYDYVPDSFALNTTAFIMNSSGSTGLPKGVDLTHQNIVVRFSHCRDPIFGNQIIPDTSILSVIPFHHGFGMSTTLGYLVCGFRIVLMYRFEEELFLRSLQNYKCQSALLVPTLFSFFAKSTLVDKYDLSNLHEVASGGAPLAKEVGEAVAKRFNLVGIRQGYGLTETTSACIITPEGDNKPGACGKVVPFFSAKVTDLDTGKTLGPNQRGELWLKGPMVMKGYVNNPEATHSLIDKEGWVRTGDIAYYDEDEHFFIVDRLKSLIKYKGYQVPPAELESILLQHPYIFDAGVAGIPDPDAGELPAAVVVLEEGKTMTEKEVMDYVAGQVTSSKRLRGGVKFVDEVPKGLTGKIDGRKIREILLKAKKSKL

[2] = target: T2, REPh (red-emitting luciferase from P. hirtus) (Phrixothrix hirtus, UniProt Q9U4U7, K522A); experiment: differential scanning calorimetry; type: binding; settings: Hepes 20 mM pH 7.8, MgCl2 10 mM; ligand 5 uM (methods) or 5 mM (Figure S10 legend)
T2 construct: full-length synthetic codon-optimised gene in pET28-MHL, E. coli BL21-CodonPlus-RIL, Ni and size-exclusion purified; about 61 kDa monomer, tetramer in solution; PDB codes 6AAA, 6ABH, 6AC3 printed without assignment to protein
T2 sequence (Q9U4U7 1-546 K522A): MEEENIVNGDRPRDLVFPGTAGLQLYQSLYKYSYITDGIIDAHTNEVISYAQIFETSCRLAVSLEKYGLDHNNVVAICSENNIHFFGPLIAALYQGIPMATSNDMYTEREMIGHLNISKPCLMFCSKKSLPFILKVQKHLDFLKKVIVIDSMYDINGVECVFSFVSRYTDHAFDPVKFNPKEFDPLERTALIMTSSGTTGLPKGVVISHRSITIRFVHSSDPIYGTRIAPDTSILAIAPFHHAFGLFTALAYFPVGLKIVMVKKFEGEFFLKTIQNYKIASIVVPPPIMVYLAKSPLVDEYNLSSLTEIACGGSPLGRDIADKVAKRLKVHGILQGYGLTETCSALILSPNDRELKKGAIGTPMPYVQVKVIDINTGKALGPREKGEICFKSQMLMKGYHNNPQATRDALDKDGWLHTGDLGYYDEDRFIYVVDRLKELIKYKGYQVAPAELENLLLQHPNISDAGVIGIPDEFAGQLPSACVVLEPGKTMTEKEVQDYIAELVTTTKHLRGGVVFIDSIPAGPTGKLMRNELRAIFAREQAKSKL

[3] = target: T3, REPh (red-emitting luciferase from P. hirtus) (Phrixothrix hirtus, UniProt Q9U4U7); experiment: differential scanning calorimetry; type: binding; settings: 35 °C without ligand, Hepes 20 mM pH 7.8, MgCl2 10 mM, ligand 5 uM (methods) or 5 mM (Figure S10 legend)
T3 construct: full-length synthetic codon-optimised gene in pET28-MHL, E. coli BL21-CodonPlus-RIL, Ni and size-exclusion purified; about 61 kDa monomer, tetramer in solution; PDB codes 6AAA, 6ABH, 6AC3 printed without assignment to protein
T3 sequence (Q9U4U7 1-546): T2 sequence (Q9U4U7 1-546 K522A) with A522K

[4] = target: red-emitting luciferase from Phrixothrix hirtus, double mutant Y153A/F162A (Phrixothrix hirtus); experiment: SEC; Superdex 200 5/150 GL; MWs estimated with a gel filtration calibration kit
[5] = target: red-emitting luciferase from Phrixothrix hirtus, mutant F162A (Phrixothrix hirtus); experiment: as above
[6] = target: red-emitting luciferase from Phrixothrix hirtus, mutant Y153A (Phrixothrix hirtus); experiment: as above
[7] = target: red-emitting luciferase from the glow-worm Phrixothrix hirtus, wild type (Phrixothrix hirtus); experiment: crystal structure; REPh free enzyme, P3(1)21 crystal form, 3.60 Å; PEG 3350 19-21%, bis-tris propane 100 mM pH 6.0, ammonium sulfate 200 mM
[8] = target: red-emitting luciferase from the glow-worm Phrixothrix hirtus, wild type (Phrixothrix hirtus); experiment: crystal structure; REPh free enzyme, P1 crystal form, 3.05 Å; only the N-terminal domains seen; PEG 3350 19-21%, bis-tris propane 100 mM pH 6.0, ammonium sulfate 200 mM
[9] = target: red-emitting luciferase from the glow-worm Phrixothrix hirtus, wild type (Phrixothrix hirtus); experiment: SEC; Superdex 200 5/150 GL; MWs estimated with a gel filtration calibration kit

Compound: O=C(O)[C@H]1CSC(c2nc3ccc(O)cc3s2)=N1 [firefly luciferin]
- bioluminescence emission spectra ([1]; co-substrate ATP): The emission of WT GBAv was pH-dependent
- Tm ([3]; Tm with ligand): 41 °C

Compound: red-emitting luciferase from Phrixothrix hirtus, mutant Y153A (enzyme)
- stoichiometry N [6]: 2

Compound: red-emitting luciferase from the glow-worm Phrixothrix hirtus, wild type (enzyme)
- stoichiometry N [7]: 4
- stoichiometry N [8]: 8
- stoichiometry N [9]: 4

Now from value to compound, other results behind:

- bioluminescence emission spectra ([1]; co-substrate luciferin): The emission of WT GBAv was pH-dependent
- Tm ([3]; two transitions with ligand, in °C (unit assumed)): 36 and 41
Compound: Nc1ncnc2c1ncn2[C@@H]1O[C@H](COP(=O)(O)OP(=O)(O)OP(=O)(O)O)[C@@H](O)[C@H]1O [ATP]
- Tm [2]: signal was detectable only after the addition of substrate, luciferin or ATP

- stoichiometry N [4]: 2
Compound: red-emitting luciferase from Phrixothrix hirtus, double mutant Y153A/F162A (enzyme)

- stoichiometry N [5]: 2
Compound: red-emitting luciferase from Phrixothrix hirtus, mutant F162A (enzyme)
